Test results published in patent publication US20180155712, “COMPOSITIONS AND METHODS FOR IDENTIFYING POLYNUCLEOTIDES OF INTEREST” (The Regents of the University of California, published 2018).

Biological target: T7 RNA polymerase (Bacteriophage T7, UniProt P00573 P00573:1-883)
Experiment: functional promoter recovered as cDNA by in vitro transcription and deep sequencing; relative strength not given
Procedure: Transcription with T7 RNA polymerase, phenol/chloroform/iso-amyl alcohol extraction, ethanol precipitation, and reverse transcription were performed as described for Examples 1 and 2, above. PCR was done of the resulting cDNA with primers that added appropriate indexed sequences for Illumina deep sequencing, as described above and herein. PCR was also done directly on the library plasmid, again adding the appropriate sequences for Illumina deep sequencing, but with a different index. The appropriately sized PCR products from the cDNA and from the plasmid library were gel purified. An equal mass amount of the two products were mixed and submitted for Illumina MiSeq deep sequencing. Approximately 5 million sequences were generated for each of the cDNA and plasmid library after separation based on the primer indices. For both cDNA and library PCR products, non-promoter sequences were trimmed, promoter sequences were separated based on the number of mutations present in each sequence, and the number of times any given sequence was present was determined. […] See, SEQ ID NOs: 10-73473 listed in the text-formatted computer readable sequence listing filed herewith, and incorporated herein by reference. […]

Sequence of T7 RNA polymerase (P00573 whole entry, one chain of several): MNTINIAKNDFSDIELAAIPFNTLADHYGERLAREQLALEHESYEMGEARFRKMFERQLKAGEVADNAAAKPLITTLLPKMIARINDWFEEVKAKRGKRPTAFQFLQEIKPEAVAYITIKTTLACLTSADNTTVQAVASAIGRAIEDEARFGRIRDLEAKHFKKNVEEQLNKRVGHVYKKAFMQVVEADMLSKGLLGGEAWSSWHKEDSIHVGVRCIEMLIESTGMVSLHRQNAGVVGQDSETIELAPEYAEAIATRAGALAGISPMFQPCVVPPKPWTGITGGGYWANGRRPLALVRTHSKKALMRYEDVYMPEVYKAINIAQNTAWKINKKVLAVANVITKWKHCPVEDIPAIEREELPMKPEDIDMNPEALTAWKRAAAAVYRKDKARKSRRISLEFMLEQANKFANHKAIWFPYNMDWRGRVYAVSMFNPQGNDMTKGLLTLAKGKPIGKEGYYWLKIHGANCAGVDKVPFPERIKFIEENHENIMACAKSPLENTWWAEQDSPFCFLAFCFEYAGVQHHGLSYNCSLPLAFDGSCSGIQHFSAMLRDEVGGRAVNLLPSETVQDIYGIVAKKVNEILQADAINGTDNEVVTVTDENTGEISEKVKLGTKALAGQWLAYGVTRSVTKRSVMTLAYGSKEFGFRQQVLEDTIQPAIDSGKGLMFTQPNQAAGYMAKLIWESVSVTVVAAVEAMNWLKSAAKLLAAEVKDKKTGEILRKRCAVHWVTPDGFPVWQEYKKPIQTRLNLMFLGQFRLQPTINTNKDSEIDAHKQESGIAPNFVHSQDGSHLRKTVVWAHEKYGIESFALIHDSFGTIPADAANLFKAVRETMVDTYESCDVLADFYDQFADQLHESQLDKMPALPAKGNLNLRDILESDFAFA

B1: mutant T7 promoter SEQ ID NO: 10 (dsDNA)
DNA 1: TAATACGACTCGCTATCG
DNA 2: CGATAGCGAGTCGTATTA
  binding result: binds
